Results as given in PMC11210195.
pKd: −log10 of the molar value. Values belong to the substance of their own block, whether it stands above or below them.

Experiments:
[1] = molecular target: TRIM21 PRYSPRY domain (human) (UniProt P19474); experiment: SPR; Biacore T200, C1 chip, 25 °C, HBS-EP+; biotinylated PRYSPRY domain captured via monovalent streptavidin at low density (about 3 RU); (antibody) Fc constructs injected in five two-fold dilutions from 200 nM; global monophasic fit, affinity mode
Chain of TRIM21 PRYSPRY domain (human) (P19474 277-475): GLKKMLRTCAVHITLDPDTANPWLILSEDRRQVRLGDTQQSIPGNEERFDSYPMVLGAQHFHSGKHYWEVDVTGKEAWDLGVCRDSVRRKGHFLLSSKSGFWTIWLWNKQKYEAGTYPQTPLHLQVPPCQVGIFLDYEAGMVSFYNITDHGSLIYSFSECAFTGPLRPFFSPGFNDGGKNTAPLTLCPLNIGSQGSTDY

mAb1 HH (human) = experiment: SPR; antibody Fc variants captured via anti-human Fab-kappa ligand at low density (approx. 8-10 RU); TRIM21-CC-PS injected, two-fold series from 100 nM, 180 s association, 600 s dissociation; 25°C, HBS-EP+; 1:1 fit; apparent (avidity) constants
mAb1 YTE (human) = experiment: as above
mAb1 WT-AAA (human) = experiment: mass photometry; TRIM21-CC-PS incubated 10 min with antibody Fc variants at different molar ratios, low nM; PBS pH 7.4, room temperature
[2] = molecular target: anti-AAV2 capsid antibody A20 WT (human); experiment: SPR; A20 antibody variants and TRIM21-CC-PS; orientation not told in the text (Supplementary Figure S8); apparent (avidity) constant
Chain of anti-AAV2 capsid antibody A20 WT (human) (heavy, as listed by the source, chain 1 of 2): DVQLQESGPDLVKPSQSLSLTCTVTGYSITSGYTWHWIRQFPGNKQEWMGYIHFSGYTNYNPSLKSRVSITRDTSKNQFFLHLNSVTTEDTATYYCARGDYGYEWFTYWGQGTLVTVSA
Chain of anti-AAV2 capsid antibody A20 WT (human) (light, as listed by the source, chain 2 of 2): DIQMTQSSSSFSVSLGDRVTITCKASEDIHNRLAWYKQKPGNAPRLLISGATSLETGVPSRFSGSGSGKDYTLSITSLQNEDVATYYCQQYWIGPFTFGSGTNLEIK

[3] = molecular target: mAb1 WT-AAA (asymmetrical human IgG1, one Fc heavy chain H310A, H433A, Y436A) (human); experiment: SPR; Biacore T200, C1 chip, 25 °C, HBS-EP+; (antibody) Fc variants captured at low density (about 8-10 RU) via anti-human Fab-kappa nanobody or anti-PGLALA F(ab')2; TRIM21-CC-PS injected 180 s in two-fold dilutions from 100, 400, 500 or 1000 nM; global 1:1 Langmuir fit; avidity (apparent) mode for symmetrical, affinity mode for asymmetrical Fc variants
[4] = molecular target: mAb1 YTE (human IgG1, M252Y, S254T, T256E) (human); experiment: as above
[5] = molecular target: mAb1 HH-AAA (asymmetrical human IgG1, one Fc heavy chain HH, the other AAA) (human); experiment: as above
[6] = molecular target: mAb1 YTE-AAA (asymmetrical human IgG1, one Fc heavy chain YTE, the other AAA) (human); experiment: as above
[7] = molecular target: mAb1 HH (human IgG1, T307H, N434H) (human); experiment: as above
[8] = molecular target: anti-AAV2 capsid antibody A20 WT (bivalent, human IgG1 Fc WT) (human); experiment: as above
Chain of anti-AAV2 capsid antibody A20 WT (bivalent, human IgG1 Fc WT) (human) (heavy, as listed by the source, chain 1 of 2): as the sequence (heavy, as listed by the source, chain 1 of 2) above
Chain of anti-AAV2 capsid antibody A20 WT (bivalent, human IgG1 Fc WT) (human) (light, as listed by the source, chain 2 of 2): as the sequence (light, as listed by the source, chain 2 of 2) above

Chain of TRIM21-coiled-coil-PRYSPRY (P19474 128-475): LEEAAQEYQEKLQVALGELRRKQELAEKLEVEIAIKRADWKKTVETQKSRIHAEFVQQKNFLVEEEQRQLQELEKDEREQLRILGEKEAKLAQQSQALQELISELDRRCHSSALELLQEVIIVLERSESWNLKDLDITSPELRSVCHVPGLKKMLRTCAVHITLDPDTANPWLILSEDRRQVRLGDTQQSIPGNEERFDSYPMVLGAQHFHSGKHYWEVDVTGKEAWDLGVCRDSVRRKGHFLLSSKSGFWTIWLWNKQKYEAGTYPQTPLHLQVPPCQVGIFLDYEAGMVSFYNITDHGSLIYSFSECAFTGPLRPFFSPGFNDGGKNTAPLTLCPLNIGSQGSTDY
Chain of TRIM21-coiled-coil-PRYSPRY (TRIM21-CC-PS) (P19474 128-475): as above

Substance: Briakinumab (antibody)
- pKd [1]: 7.78
- koff [1]: 0.102 s⁻¹
- kon [1]: 6.14e+06 M⁻¹ s⁻¹

Substance: TRIM21-coiled-coil-PRYSPRY (TRIM21-CC-PS) (from UniProt P19474-1 128-475) (domain or fragment)
- avidity enhancement (K (D,AFFINITY)/K (D,AVIDITY)) (mAb1 HH (human)): 72 fold
- fold faster kinetic rates against YTE (mAb1 HH (human)): 5 fold
- fold weaker against the WT avidity (mAb1 HH (human)): 2 fold
- avidity enhancement (K (D,AFFINITY)/K (D,AVIDITY)) (mAb1 YTE (human)): 50 fold
- fold weaker against the WT avidity (mAb1 YTE (human)): 2 fold
- percent complexed (mAb1 WT-AAA (human)): 2%
- pKd [2]: 9.15

Further lines, results first:

- pKd [1]: 7.59
- koff [1]: 0.132 s⁻¹
- kon [1]: 5.09e+06 M⁻¹ s⁻¹
Substance: Fc WT (Fc-only variant, human IgG1 core hinge-CH2-CH3, wild type) (domain or fragment)

- pKd [3]: 6.93
- koff [3]: 0.129 s⁻¹
- kon [3]: 1.1e+06 M⁻¹ s⁻¹
- pKd [4]: 8.83
- koff [4]: 0.00127 s⁻¹
- kon [4]: 865000 M⁻¹ s⁻¹
- pKd [5]: 6.32
- koff [5]: 0.437 s⁻¹
- kon [5]: 921000 M⁻¹ s⁻¹
- pKd [6]: 6.66
- koff [6]: 0.167 s⁻¹
- kon [6]: 758000 M⁻¹ s⁻¹
- pKd [7]: 8.86
- koff [7]: 0.00651 s⁻¹
- kon [7]: 4.74e+06 M⁻¹ s⁻¹
- koff [8]: 0.000983 s⁻¹
- kon [8]: 1.44e+06 M⁻¹ s⁻¹
Substance: TRIM21-coiled-coil-PRYSPRY (from UniProt P19474-1 128-475) (domain or fragment)

- pKd [1]: 7.64
- koff [1]: 0.0884 s⁻¹
- kon [1]: 3.89e+06 M⁻¹ s⁻¹
Substance: Ustekinumab (antibody)
